Test results published in the supplement of paper PMC11865577.

Tests used:
Experiment in all cases: pull-down binding Z-score (relative to library population); higher = stronger binding
[1] = test system: G-clamp-N3 (biotin conjugate); conditions: RNA library: Library-1 (pre-miRNA loops + repeats)
Outline: (§1)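 To score binding, a beads-only signal was subtracted, barcoded replicate probes were averaged with the highest and lowest dropped, and the value was converted to a Z-score using the library mean and standard deviation. The input was 1 μg of Cy5- or Cy3-end-labelled RNA library, heat-folded in phosphate/NaCl/KCl buffer and mixed for 60 min at 25 °C with streptavidin beads carrying 100 pmol of biotin-conjugated small molecule. Bound RNA was eluted in hot SDS and hybridised to a DNA barcode microarray at 55.5 °C for 20 h.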

[2] = test system: TO-3-N3-2 (biotin conjugate); conditions: RNA library: Library-2
Outline: as §1

[3] = test system: TO-N3-2 (biotin conjugate); conditions: RNA library: Library-2
Outline: as §1

TO-N3 (biotin conjugate) = conditions: RNA library: Library-2
Outline: as §1

[4] = test system: TO-3-N3 (biotin conjugate); conditions: RNA library: Library-2
Outline: as §1

## CAUUUGUGGCAUGGACCAUUUGUG [hsa-mir-4504]
[1]
  pull-down binding Z-score: -0.183
[2]
  pull-down binding Z-score: -0.518
[3]
  pull-down binding Z-score: -0.813
TO-N3 (biotin conjugate)
  pull-down binding Z-score: -0.959
[4]
  pull-down binding Z-score: -0.874

## CCAAAGAAACUUUUUUGG [hsa-mir-6079]
[1]
  pull-down binding Z-score: -0.295
[2]
  pull-down binding Z-score: -0.557
[3]
  pull-down binding Z-score: -1.1
TO-N3 (biotin conjugate)
  pull-down binding Z-score: -0.761
[4]
  pull-down binding Z-score: -0.414

## CCAAAUCAGAAAAGGAUUUGG [hsa-mir-4520-1]
[1]
  pull-down binding Z-score: 4.83
[2]
  pull-down binding Z-score: -0.242
[3]
  pull-down binding Z-score: -0.892
TO-N3 (biotin conjugate)
  pull-down binding Z-score: -0.698
[4]
  pull-down binding Z-score: -0.497

## CCAAAUCCUUUUCUGAUUUGG [hsa-mir-4520-2]
[1]
  pull-down binding Z-score: -0.824
[2]
  pull-down binding Z-score: -0.574
[3]
  pull-down binding Z-score: -1.69
TO-N3 (biotin conjugate)
  pull-down binding Z-score: -1.03
[4]
  pull-down binding Z-score: -0.645

## CCAAAUUUCAUGCG [hsa-mir-4454]
[1]
  pull-down binding Z-score: -1.72
[2]
  pull-down binding Z-score: -0.18
[3]
  pull-down binding Z-score: -0.0452
TO-N3 (biotin conjugate)
  pull-down binding Z-score: 0.0342
[4]
  pull-down binding Z-score: -0.0597

## CCAAGCUUAGUUUGG [hsa-mir-1302-11_1302-10_1302-3_1302-2_1302-9]
[1]
  pull-down binding Z-score: 0.00542
[2]
  pull-down binding Z-score: -0.446
[3]
  pull-down binding Z-score: -0.61
TO-N3 (biotin conjugate)
  pull-down binding Z-score: 0.572
[4]
  pull-down binding Z-score: 0.74

## CCAAGGCUCUGGGGUCUCACCCUUGG [hsa-mir-6842]
[1]
  pull-down binding Z-score: 0.754
[2]
  pull-down binding Z-score: -0.394
[3]
  pull-down binding Z-score: 0.0499
TO-N3 (biotin conjugate)
  pull-down binding Z-score: 0.386
[4]
  pull-down binding Z-score: 0.484

## CCAAGGUUGUGCUUUUAGGAAAUGUUGGCUGUCCUGCGG [hsa-mir-5739]
[1]
  pull-down binding Z-score: 0.485
[2]
  pull-down binding Z-score: 0.205
[3]
  pull-down binding Z-score: 0.49
TO-N3 (biotin conjugate)
  pull-down binding Z-score: -0.157
[4]
  pull-down binding Z-score: -0.448

## CCAAGUCUGACCACCUGAGGAAUGCCUGG [hsa-mir-1269a]
[1]
  pull-down binding Z-score: -0.858
[2]
  pull-down binding Z-score: -0.335
[3]
  pull-down binding Z-score: 0.719
TO-N3 (biotin conjugate)
  pull-down binding Z-score: -0.288
[4]
  pull-down binding Z-score: -0.498

## CCAAUGGUAUCCAGUGAUUCGUUGA [hsa-mir-4709]
[1]
  pull-down binding Z-score: -0.854
[2]
  pull-down binding Z-score: -0.442
[3]
  pull-down binding Z-score: 0.186
TO-N3 (biotin conjugate)
  pull-down binding Z-score: -0.0552
[4]
  pull-down binding Z-score: -0.486

## CCACAUAGGAGGGACAGCGGCCUUUCCAACAGG [hsa-mir-9500]
[1]
  pull-down binding Z-score: -0.994
[2]
  pull-down binding Z-score: 0.043
[3]
  pull-down binding Z-score: 0.847
TO-N3 (biotin conjugate)
  pull-down binding Z-score: 0.58
[4]
  pull-down binding Z-score: 0.253

## CCACCCACCAGGGAGCUUUCCAUGGGCUGUGGG [hsa-mir-4725]
[1]
  pull-down binding Z-score: 1.47
[2]
  pull-down binding Z-score: 0.0654
[3]
  pull-down binding Z-score: 0.788
TO-N3 (biotin conjugate)
  pull-down binding Z-score: 0.567
[4]
  pull-down binding Z-score: 0.47

## CCACGGGCUGGGCACAGUGG [hsa-mir-3159]
[1]
  pull-down binding Z-score: 1.07
[2]
  pull-down binding Z-score: 0.391
[3]
  pull-down binding Z-score: 0.891
TO-N3 (biotin conjugate)
  pull-down binding Z-score: 1.18
[4]
  pull-down binding Z-score: 1.04

## CCACUACCGGUGA [hsa-mir-4658]
[1]
  pull-down binding Z-score: -0.573
[2]
  pull-down binding Z-score: -0.309
[3]
  pull-down binding Z-score: -0.288
TO-N3 (biotin conjugate)
  pull-down binding Z-score: -0.127
[4]
  pull-down binding Z-score: -0.207

## CCACUGGGAAUGCUCCCUGAGGACGUUAUAUGAGUG [hsa-mir-4319]
[1]
  pull-down binding Z-score: 0.953
[2]
  pull-down binding Z-score: 0.399
[3]
  pull-down binding Z-score: 0.872
TO-N3 (biotin conjugate)
  pull-down binding Z-score: 0.802
[4]
  pull-down binding Z-score: 0.544

## CCAGGCCACAUAAUGAGCCAAA [hsa-mir-6771]
[1]
  pull-down binding Z-score: -1.04
[2]
  pull-down binding Z-score: 0.198
[3]
  pull-down binding Z-score: 0.607
TO-N3 (biotin conjugate)
  pull-down binding Z-score: 0.899
[4]
  pull-down binding Z-score: 0.665

## CCAGGCCCCACGGAGAACCAGGGCACCUGG [hsa-mir-8058]
[1]
  pull-down binding Z-score: 0.303
[2]
  pull-down binding Z-score: -0.353
[3]
  pull-down binding Z-score: 0.492
TO-N3 (biotin conjugate)
  pull-down binding Z-score: -0.188
[4]
  pull-down binding Z-score: -0.288

## CCAGGUUCCAUGUGAUGCUGAA [hsa-mir-6806]
[1]
  pull-down binding Z-score: 0.154
[2]
  pull-down binding Z-score: 0.299
[3]
  pull-down binding Z-score: 0.575
TO-N3 (biotin conjugate)
  pull-down binding Z-score: 0.316
[4]
  pull-down binding Z-score: -0.162

## CCAGUGCUGGGCUCAGACCCUGG [hsa-mir-150]
[1]
  pull-down binding Z-score: 0.197
[2]
  pull-down binding Z-score: -0.226
[3]
  pull-down binding Z-score: 0.701
TO-N3 (biotin conjugate)
  pull-down binding Z-score: 0.0645
[4]
  pull-down binding Z-score: -0.0352

## CCAGUGGUUUUCCUUGACUGUG [hsa-mir-298]
[1]
  pull-down binding Z-score: 1.54
[2]
  pull-down binding Z-score: -0.472
[3]
  pull-down binding Z-score: 0.0607
TO-N3 (biotin conjugate)
  pull-down binding Z-score: -0.416
[4]
  pull-down binding Z-score: -0.421

## CCAUAAGCUGUCUAAAACUUCG [hsa-mir-4513]
[1]
  pull-down binding Z-score: -1.21
[2]
  pull-down binding Z-score: -0.153
[3]
  pull-down binding Z-score: -0.0485
TO-N3 (biotin conjugate)
  pull-down binding Z-score: -0.327
[4]
  pull-down binding Z-score: -0.354

## CCAUACAAUAUUUGG [hsa-mir-1302-1]
[1]
  pull-down binding Z-score: -1.2
[2]
  pull-down binding Z-score: -0.406
[3]
  pull-down binding Z-score: -1.09
TO-N3 (biotin conjugate)
  pull-down binding Z-score: -0.898
[4]
  pull-down binding Z-score: -0.642

## CCAUCAAGCCCCACCAGAAGGUGGAGGCCCAGGUGAG [hsa-mir-4721]
[1]
  pull-down binding Z-score: -1.36
[2]
  pull-down binding Z-score: -0.479
[3]
  pull-down binding Z-score: 0.864
TO-N3 (biotin conjugate)
  pull-down binding Z-score: 0.16
[4]
  pull-down binding Z-score: 0.105

## CCAUGCAACAUUUGG [hsa-mir-1302-4]
[1]
  pull-down binding Z-score: 0.29
[2]
  pull-down binding Z-score: -0.327
[3]
  pull-down binding Z-score: -0.696
TO-N3 (biotin conjugate)
  pull-down binding Z-score: -0.359
[4]
  pull-down binding Z-score: -0.262

## CCAUGCUGUUUAAGCCUAGCAUAG [hsa-mir-4423]
[1]
  pull-down binding Z-score: -0.374
[2]
  pull-down binding Z-score: -0.16
[3]
  pull-down binding Z-score: 0.476
TO-N3 (biotin conjugate)
  pull-down binding Z-score: 0.208
[4]
  pull-down binding Z-score: 0.0223

## CCAUGGGGGCCUUGCUGUGU [hsa-mir-6808]
[1]
  pull-down binding Z-score: 1.56
[2]
  pull-down binding Z-score: 0.335
[3]
  pull-down binding Z-score: 1.04
TO-N3 (biotin conjugate)
  pull-down binding Z-score: 1.28
[4]
  pull-down binding Z-score: 1.05

## CCAUGGUGUGCUCUGAUCCCCCUGUGG [hsa-mir-6848]
[1]
  pull-down binding Z-score: -0.373
[2]
  pull-down binding Z-score: 0.0413
[3]
  pull-down binding Z-score: 0.49
TO-N3 (biotin conjugate)
  pull-down binding Z-score: 0.592
[4]
  pull-down binding Z-score: 0.35

## CCAUGUAAUCUUUGG [hsa-mir-1302-5]
[1]
  pull-down binding Z-score: -0.454
[2]
  pull-down binding Z-score: 0.112
[3]
  pull-down binding Z-score: -0.0743
TO-N3 (biotin conjugate)
  pull-down binding Z-score: 0.454
[4]
  pull-down binding Z-score: 0.507

## CCAUGUGAGUGAAGCCUGAUCAUCAUGUG [hsa-mir-8070]
[1]
  pull-down binding Z-score: -0.0843
[2]
  pull-down binding Z-score: -0.318
[3]
  pull-down binding Z-score: 0.588
TO-N3 (biotin conjugate)
  pull-down binding Z-score: -0.232
[4]
  pull-down binding Z-score: -0.67

## CCAUGUGGUUGCGAGGUAUGAGUAAAACAUGG [hsa-mir-218-1]
[1]
  pull-down binding Z-score: -0.319
[2]
  pull-down binding Z-score: -0.174
[3]
  pull-down binding Z-score: 0.275
TO-N3 (biotin conjugate)
  pull-down binding Z-score: -0.567
[4]
  pull-down binding Z-score: -0.697

## CCAUUAUUGCUACUGUUCAGCAGGUGCUGCUGGUGGUGAUGG [hsa-mir-1260b]
[1]
  pull-down binding Z-score: -0.182
[2]
  pull-down binding Z-score: -0.25
[3]
  pull-down binding Z-score: -0.182
TO-N3 (biotin conjugate)
  pull-down binding Z-score: 0.244
[4]
  pull-down binding Z-score: 0.0654

## CCAUUAUUUUUAAUAAUUAUAAUAAUGG [hsa-mir-548s]
[1]
  pull-down binding Z-score: 0.705
[2]
  pull-down binding Z-score: -0.237
[3]
  pull-down binding Z-score: -1.2
TO-N3 (biotin conjugate)
  pull-down binding Z-score: -0.233
[4]
  pull-down binding Z-score: 0.0929

## CCAUUUACUUGAACCUUUAGGAGUGA [hsa-mir-489]
[1]
  pull-down binding Z-score: -0.68
[2]
  pull-down binding Z-score: -0.05
[3]
  pull-down binding Z-score: 0.625
TO-N3 (biotin conjugate)
  pull-down binding Z-score: 0.319
[4]
  pull-down binding Z-score: 0.389

## CCCAAACUUGGAGCACUUGACCUUUGGC [hsa-mir-4687]
[1]
  pull-down binding Z-score: -1.02
[2]
  pull-down binding Z-score: 0.268
[3]
  pull-down binding Z-score: 0.804
TO-N3 (biotin conjugate)
  pull-down binding Z-score: 0.815
[4]
  pull-down binding Z-score: 0.611

## CCCAAGCAGGCUUUGUGUGAGCAGUGAGGCUAUUUAUUCACUUGGGUGCGAGCUCACACGAAGCCUGCUUGGG [hsa-mir-6839]
[1]
  pull-down binding Z-score: 1.44
[2]
  pull-down binding Z-score: 0.815
[3]
  pull-down binding Z-score: 0.665
TO-N3 (biotin conjugate)
  pull-down binding Z-score: 0.551
[4]
  pull-down binding Z-score: 0.33

## CCCACCAUGUACCAGUGGG [hsa-mir-4422]
[1]
  pull-down binding Z-score: -1.07
[2]
  pull-down binding Z-score: -0.535
[3]
  pull-down binding Z-score: -0.708
TO-N3 (biotin conjugate)
  pull-down binding Z-score: -0.813
[4]
  pull-down binding Z-score: -0.343

## CCCACCCUGAGUUUUGGUGGG [hsa-mir-6508]
[1]
  pull-down binding Z-score: -0.873
[2]
  pull-down binding Z-score: -0.26
[3]
  pull-down binding Z-score: -1.22
TO-N3 (biotin conjugate)
  pull-down binding Z-score: -0.245
[4]
  pull-down binding Z-score: -0.066

## CCCACCUCCAGCAUUGGG [hsa-mir-1267]
[1]
  pull-down binding Z-score: -0.68
[2]
  pull-down binding Z-score: -0.393
[3]
  pull-down binding Z-score: -0.466
TO-N3 (biotin conjugate)
  pull-down binding Z-score: -0.663
[4]
  pull-down binding Z-score: -0.458
